Assay results published in patent publication US20050249719.

T1: 33-mer gliadin peptide LQLQPFPQPQLPYPQPQLPYPQPQLPYPQPQPF
T1 chain: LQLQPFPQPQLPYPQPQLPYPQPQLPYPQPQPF

T2: gliadin peptide PQPQLPYPQPQLP
T2 chain: PQPQLPYPQPQLP

B1: human tissue transglutaminase (protein)
chain: AEELVLERCDLELETNGRDHHTADLCREKLVVRRGQPFWLTLHFEGRNYEASVDSLTFSVVTGPAPSQEAGTKARFPLRDAVEEGDWTATVVDQQDCTLSLQLTTPANAPIGLYRLSLEASTGYQGSSFVLGHFILLFNAWCPADAVYLDSEEERQEYVLTQQGFIYQGSAKFIKNIPWNFGQFEDGILDICLILLDVNPKFLKNAGRDCSRRSSPVYVGRVVSGMVNCNDDQGVLLGRWDNNYGDGVSPMSWIGSVDILRRWKNHGCQRVKYGQCWVFAAVACTVLRCLGIPTRVVTNYNSAHDQNSNLLIEYFRNEFGEIQGDKSEMIWNFHCWVESWMTRPDLQPGYEGWQALDPTPQEKSEGTYCCGPVPVRAIKEGDLSTKYDAPFVFAEVNADVVDWIQQDDGSVHKSINRSLIVGLKISTKSVGRDEREDITHTYKYPEGSSEEREAFTRANHLNKLAEKEETGMAMRIRVGQSMNMGSDFDVFAHITNNTAEEYVCRLLLCARTVSYNGILGPECGTKYLLNLNLEPFSEKSVPLCILYEKYRDCLTESNLIKVRALLVEPVINSYLLAERDLYLENPEIKIRILGEPKQKRKLVAEVSLQNPLPVALEGCTFTVEGAGLTEEQKTVEIPDPVEAGEEVKVRMDLLPLHMGLHKLVVNFESDKLKAVKGFRNVIIGPA
B2: Flavobacterium meningosepticum prolyl endopeptidase (recombinant, expressed in E. coli) (protein)
chain: QNSNVLKYPETKKVSHTDTYFGTQVSDPYRWLEDDRAEDTKAWVQQEVKFTQDYLAQIPFRDQLKKQLMDIWNYEKISAPFKKGKYTYFSKNDGLQAQSVLYRKDAAGKTEVFLDPNKFSEKGTTSLASVSFNKKGTLVAYSISEGGSDWNKIIILDAETKKQLDETLLDVKFSGISWLGDEGFFYSSYDKPKEGSVLSGMTDKHKVYFHKLGTKQSQDELIIGGDKFPRRYIGAYVTDDQRYLVVSAANATNGNELYIKDLKNKTDFIPIITGFDSNVNVADTDGDTLYLFTDKDAPNKRLVKTTIQNPKAETWKDVIAETSEPLEINTGGGYFFATYMKDAIDQVKQYDKNGKLVRAIKLPGSGNASGFGGEKTEKDLYYSFTNYITPPTIFKYNVTTGNSEVYQKPKVKFNPENYVSEQVFYTSSDGTKIPMMISYKKGLKKDGKNPTILYSYGGFNISLQPAFSVVNAIWMENGGIYAVPNIRGGGEYGKKWHDAGTKMQKKNVFNDFIAAGEYLQKNGYTSKEYMALSGRSNGGLLVGATMTMRPDLAKVAFPGVGVLDMLRYNKFTAGAGWAYDYGTAEDSKEMFEYLKSYSPVHNVKAGTCYPSTMVITSDHDDRVVPAHSFKFGSELQAKQSCKNPILIRIETNAGHGAGRSTEQVVAENADLLSFALYEMGIKSLK

Columns and labels:
[1] = molecular target: T1, 33-mer gliadin peptide …
[2] = molecular target: T2, gliadin peptide PQPQLPYPQPQLP

Protein | kcat/KM of deamidation [1] | competitive proteolysis of the 13-mer and the 33-mer [1] | initial rate on the 33-mer, fold against MX PEP [1] | initial rate on the 33-mer, fold against SC PEP [1] | rate of substrate (33-mer+32-mer) disappearance [1] | time to hydrolyze 10 µM of the 33-mer with 0.1 µM enzyme [1] | Kcat/KM [2] [mM^-1/s^-1] | competitive proteolysis of the 13-mer and the 33-mer [2]
B1 | kcat/KM=440 min-1 mM-1 | – | – | – | – | – | – | –
B2 | – | showed comparable selectivity for both peptides | 5-fold faster on the 33-mer than the MX PEP | >20 fold faster than the SC PEP | 2.3 µM/min (FM PEP) | in about 2-3 minutes | 178 | showed comparable selectivity for both peptides
